Laboratory results from US20160153985A1.

Experiments:
[1] = biological target: pure human iC3b (Complement Technology, A115) (human) (UniProt P01024); assay: sandwich ELISA, capture A209 (Example 5), goat anti-C3-HRP; TABLE 6 well A3, blocker
[2] = biological target: pure human iC3b (Complement Technology, A115) (human) (UniProt P01024); assay: sandwich ELISA, capture A209 (Example 5), goat anti-C3-HRP; TABLE 6 well A4, blocker
[3] = biological target: pure human iC3b (Complement Technology, A115) (human) (UniProt P01024); assay: sandwich ELISA, capture A209 (Example 5), goat anti-C3-HRP; TABLE 6 well A7, blocker
[4] = biological target: pure human iC3b (Complement Technology, A115) (human) (UniProt P01024); assay: sandwich ELISA, capture A209 (Example 5), goat anti-C3-HRP; TABLE 6 well A9, blocker
[5] = biological target: pure human iC3b (Complement Technology, A115) (human) (UniProt P01024); assay: sandwich ELISA, capture A209 (Example 5), goat anti-C3-HRP; TABLE 6 well B6, blocker
[6] = biological target: pure human iC3b (Complement Technology, A115) (human) (UniProt P01024); assay: sandwich ELISA, capture A209 (Example 5), goat anti-C3-HRP; TABLE 6 well B7, blocker
[7] = biological target: pure human iC3b (Complement Technology, A115) (human) (UniProt P01024); assay: sandwich ELISA, capture A209 (Example 5), goat anti-C3-HRP; TABLE 6 well C3, 30% vitreous
[8] = biological target: pure human iC3b (Complement Technology, A115) (human) (UniProt P01024); assay: sandwich ELISA, capture A209 (Example 5), goat anti-C3-HRP; TABLE 6 well D3, 30% vitreous
[9] = biological target: pure human iC3b (Complement Technology, A115) (human) (UniProt P01024); assay: sandwich ELISA, capture A209 (Example 5), goat anti-C3-HRP; TABLE 6 well D5, 30% vitreous
[10] = biological target: pure human iC3b (Complement Technology, A115) (human) (UniProt P01024); assay: sandwich ELISA, capture A209 (Example 5), goat anti-C3-HRP; TABLE 6 well D7, 30% vitreous
[11] = biological target: pure human iC3b (Complement Technology, A115) (human) (UniProt P01024); assay: sandwich ELISA, capture A209 (Example 5), goat anti-C3-HRP; TABLE 6 well D8, 30% vitreous
[12] = biological target: pure human iC3b (Complement Technology, A115) (human) (UniProt P01024); assay: sandwich ELISA, capture A209 (Example 5), goat anti-C3-HRP; TABLE 6 well E2, 20% vitreous
[13] = biological target: pure human iC3b (Complement Technology, A115) (human) (UniProt P01024); assay: sandwich ELISA, capture A209 (Example 5), goat anti-C3-HRP; TABLE 6 well E8, 20% vitreous
[14] = biological target: pure human iC3b (Complement Technology, A115) (human) (UniProt P01024); assay: sandwich ELISA, capture A209 (Example 5), goat anti-C3-HRP; TABLE 6 well F3, 20% vitreous
[15] = biological target: pure human iC3b (Complement Technology, A115) (human) (UniProt P01024); assay: sandwich ELISA, capture A209 (Example 5), goat anti-C3-HRP; TABLE 6 well F7, 20% vitreous
[16] = biological target: pure human iC3b (Complement Technology, A115) (human) (UniProt P01024); assay: sandwich ELISA, capture A209 (Example 5), goat anti-C3-HRP; TABLE 6 well F8, 20% vitreous
[17] = biological target: pure human iC3b (Complement Technology, A115) (human) (UniProt P01024); assay: sandwich ELISA, capture A209 (Example 5), goat anti-C3-HRP; TABLE 6 well G2, 10% vitreous
[18] = biological target: pure human iC3b (Complement Technology, A115) (human) (UniProt P01024); assay: sandwich ELISA, capture A209 (Example 5), goat anti-C3-HRP; TABLE 6 well G7, 10% vitreous
[19] = biological target: pure human iC3b (Complement Technology, A115) (human) (UniProt P01024); assay: sandwich ELISA, capture A209 (Example 5), goat anti-C3-HRP; TABLE 6 well G8, 10% vitreous
[20] = biological target: pure human iC3b (Complement Technology, A115) (human) (UniProt P01024); assay: sandwich ELISA, capture A209 (Example 5), goat anti-C3-HRP; TABLE 6 well G9, 10% vitreous
[21] = biological target: pure human iC3b (Complement Technology, A115) (human) (UniProt P01024); assay: sandwich ELISA, capture A209 (Example 5), goat anti-C3-HRP; TABLE 6 well H8, 10% vitreous
[22] = biological target: pure human iC3b (Complement Technology, A115) (human) (UniProt P01024); assay: sandwich ELISA, capture A209 (Example 5), goat anti-C3-HRP; TABLE 7, iC3b in 30% vitreous
[23] = biological target: pure human iC3b (Complement Technology, A115) (human) (UniProt P01024); assay: sandwich ELISA of Example 5, iC3b concentration labeled 0.0125 in 20% human vitreous, duplicate 1
[24] = biological target: pure human iC3b (Complement Technology, A115) (human) (UniProt P01024); assay: sandwich ELISA of Example 5, iC3b concentration labeled 0.0125 in 20% human vitreous, duplicate 2
[25] = biological target: pure human iC3b (Complement Technology, A115) (human) (UniProt P01024); assay: sandwich ELISA of Example 5, iC3b concentration labeled 0.0125 in 20% human vitreous, mean of duplicates less background

Sequence of UniProt P01024 (P01024 23-667 limits assumed, chain 1 of 3): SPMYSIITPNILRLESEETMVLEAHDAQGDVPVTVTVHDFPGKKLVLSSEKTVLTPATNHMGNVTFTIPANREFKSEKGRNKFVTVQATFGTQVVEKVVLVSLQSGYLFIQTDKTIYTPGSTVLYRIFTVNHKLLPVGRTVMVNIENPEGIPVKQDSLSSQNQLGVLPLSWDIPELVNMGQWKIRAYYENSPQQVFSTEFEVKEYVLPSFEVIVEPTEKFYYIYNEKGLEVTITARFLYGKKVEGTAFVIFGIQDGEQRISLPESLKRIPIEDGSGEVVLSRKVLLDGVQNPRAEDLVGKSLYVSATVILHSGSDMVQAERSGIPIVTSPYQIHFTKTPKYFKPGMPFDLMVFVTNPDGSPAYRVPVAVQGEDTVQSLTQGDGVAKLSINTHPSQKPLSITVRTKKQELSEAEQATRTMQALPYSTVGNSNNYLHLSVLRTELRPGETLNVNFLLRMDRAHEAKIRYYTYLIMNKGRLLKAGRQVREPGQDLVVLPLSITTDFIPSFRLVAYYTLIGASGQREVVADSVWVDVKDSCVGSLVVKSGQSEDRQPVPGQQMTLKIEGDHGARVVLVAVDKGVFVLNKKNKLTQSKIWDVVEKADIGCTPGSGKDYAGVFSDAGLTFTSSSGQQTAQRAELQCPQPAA
Sequence of UniProt P01024 (P01024 749-1303 limits assumed, chain 2 of 3): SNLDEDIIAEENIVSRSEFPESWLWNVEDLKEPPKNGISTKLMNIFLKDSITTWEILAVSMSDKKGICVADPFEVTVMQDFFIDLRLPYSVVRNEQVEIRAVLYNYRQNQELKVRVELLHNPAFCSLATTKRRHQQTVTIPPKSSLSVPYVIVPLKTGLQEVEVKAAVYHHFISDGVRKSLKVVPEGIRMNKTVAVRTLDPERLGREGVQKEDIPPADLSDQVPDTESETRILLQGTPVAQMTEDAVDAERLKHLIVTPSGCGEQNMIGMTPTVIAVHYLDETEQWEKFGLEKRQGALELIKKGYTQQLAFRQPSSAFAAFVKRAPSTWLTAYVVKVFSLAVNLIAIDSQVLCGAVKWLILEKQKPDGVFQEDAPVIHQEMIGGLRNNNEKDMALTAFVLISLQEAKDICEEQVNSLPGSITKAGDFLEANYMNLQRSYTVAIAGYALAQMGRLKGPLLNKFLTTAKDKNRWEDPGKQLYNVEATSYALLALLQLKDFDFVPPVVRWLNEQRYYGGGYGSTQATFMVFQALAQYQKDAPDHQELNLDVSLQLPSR
Sequence of UniProt P01024 (P01024 1321-1663 limits assumed, chain 3 of 3): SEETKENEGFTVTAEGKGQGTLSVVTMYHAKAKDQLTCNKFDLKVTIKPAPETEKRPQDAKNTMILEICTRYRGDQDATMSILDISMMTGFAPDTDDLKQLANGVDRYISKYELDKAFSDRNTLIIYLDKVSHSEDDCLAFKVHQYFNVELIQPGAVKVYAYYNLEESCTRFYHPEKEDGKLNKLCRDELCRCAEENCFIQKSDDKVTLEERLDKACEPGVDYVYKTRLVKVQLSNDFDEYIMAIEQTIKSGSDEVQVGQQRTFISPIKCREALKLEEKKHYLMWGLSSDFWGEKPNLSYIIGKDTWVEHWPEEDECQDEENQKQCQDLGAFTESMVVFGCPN

raw A450 at iC3b 0.5 ug/ml [1]: 0.258 OD | raw A450 at iC3b 0.25 ug/ml [2]: 0.169 OD | raw A450 at iC3b 0.031 ug/ml [3]: 0.053 OD | raw A450 at iC3b 0.0078 ug/ml [4]: 0.035 OD | raw A450 at iC3b 0.063 ug/ml [5]: 0.07 OD | raw A450 at iC3b 0.031 ug/ml [6]: 0.048 OD | raw A450 at iC3b 0.5 ug/ml [7]: 0.406 OD | raw A450 at iC3b 0.5 ug/ml [8]: 0.406 OD | raw A450 at iC3b 0.125 ug/ml [9]: 0.391 OD | raw A450 at iC3b 0.031 ug/ml [10]: 0.356 OD | raw A450 at iC3b 0.016 ug/ml [11]: 0.355 OD | raw A450 at iC3b 1 ug/ml [12]: 0.485 OD | raw A450 at iC3b 0.016 ug/ml [13]: 0.321 OD | raw A450 at iC3b 0.5 ug/ml [14]: 0.45 OD | raw A450 at iC3b 0.031 ug/ml [15]: 0.333 OD | raw A450 at iC3b 0.016 ug/ml [16]: 0.318 OD | raw A450 at iC3b 1 ug/ml [17]: 0.508 OD | raw A450 at iC3b 0.031 ug/ml [18]: 0.248 OD | raw A450 at iC3b 0.016 ug/ml [19]: 0.227 OD | raw A450 at iC3b 0.0078 ug/ml [20]: 0.229 OD | raw A450 at iC3b 0.016 ug/ml [21]: 0.237 OD | A450 minus matrix average at iC3b 0.0078 ug/ml [22]: 0.0042 OD | A450 minus matrix average at iC3b 0.016 ug/ml [22]: -0.02 OD | A450 minus matrix average at iC3b 0.031 ug/ml [22]: -0.005 OD | A450 minus matrix average at iC3b 0.063 ug/ml [22]: 0.008 OD | A450 minus matrix average at iC3b 0.125 ug/ml [22]: 0.027 OD | A450 minus matrix average at iC3b 0.25 ug/ml [22]: 0.051 OD | A450 minus matrix average at iC3b 0.5 ug/ml [22]: 0.045 OD | A450 minus matrix average at iC3b 1 ug/ml [22]: 0.087 OD | absorbance A450, raw [23]: 0.361 A450 | absorbance A450, raw [24]: 0.384 A450 | net absorbance A450 (matrix only value 0.328 subtracted) [25]: 0.049 A450
Substance: mouse anti-iC3b antibody A209 (Quidel)
